For one substance, Kd and percent of H2 in the pellet with F-actin (self-pelleting subtracted) results are on record in doi:10.1101/2021.04.27.441644.

The target in this assay is filamentous actin (F-actin) (rabbit) (UniProt P68135). Briefly: co-sedimentation.

Chain of CLIP-170 N-terminal fragment H2 (H2 1-481) (P30622 1-481): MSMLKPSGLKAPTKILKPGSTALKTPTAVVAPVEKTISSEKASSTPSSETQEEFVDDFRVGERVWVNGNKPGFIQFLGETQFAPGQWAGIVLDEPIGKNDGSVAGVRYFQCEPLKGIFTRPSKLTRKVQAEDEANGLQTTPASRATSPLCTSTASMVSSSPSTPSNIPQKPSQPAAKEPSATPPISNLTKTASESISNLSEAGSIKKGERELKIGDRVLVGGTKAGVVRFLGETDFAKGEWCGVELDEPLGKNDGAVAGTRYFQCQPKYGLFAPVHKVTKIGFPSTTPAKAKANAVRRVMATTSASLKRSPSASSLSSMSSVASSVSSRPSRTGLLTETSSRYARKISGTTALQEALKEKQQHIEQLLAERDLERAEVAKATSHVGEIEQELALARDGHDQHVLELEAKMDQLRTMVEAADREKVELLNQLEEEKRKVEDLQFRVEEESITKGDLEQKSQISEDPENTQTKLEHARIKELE

Consider “CLIP-170 N-terminal fragment H2 (H2 1-481) (from UniProt P30622 1-481) (domain or fragment)”, for which the Kd amounted to 10 µM and the percent of H2 in the pellet with F-actin (self-pelleting subtracted) is 26%.

As a reminder, the Kd is the equilibrium constant for the complex coming apart. Low readings indicate a tighter complex, high ones a looser complex.
